PMC8607881 (Nature, 2021)

B1: C-terminally truncated bovine GRK1 (residues 1-535) with C-terminal His6 (enzyme, UniProt P28327 1-535, looked up)
chain: MDFGSLETVVANSAFIAARGSFDASSGPASRDRKYLARLKLPPLSKCEALRESLDLGFEGMCLEQPIGKRLFQQFLRTHEQHGPALQLWKDIEDYDTADDALRPQKAQALRAAYLEPQAQLFCSFLDAETVARARAGAGDGLFQPLLRAVLAHLGQAPFQEFLDSLYFLRFLQWKWLEAQPMGEDWFLDFRVLGRGGFGEVFACQMKATGKLYACKKLNKKRLKKRKGYQGAMVEKKILAKVHSRFIVSLAYAFETKTDLCLVMTIMNGGDIRYHIYNVDEDNPGFQEPRAIFYTAQIVSGLEHLHQRNIIYRDLKPENVLLDDDGNVRISDLGLAVELKAGQTKTKGYAGTPGFMAPELLLGEEYDFSVDYFALGVTLYEMIAARGPFRARGEKVENKELKQRVLEQAVTYPDKFSPASKDFCEALLQKDPEKRLGFRDGSCDGLRTHPLFRDISWRQLEAGMLTPPFVPDSRTVYAKNIQDVGAFSTVKGVAFEKADTEFFQEFASGTCPIPWQEEMIETGVFGDLNVWRPDG
B2: light activated rhodopsin (Rho*) (receptor, bovine, UniProt P02699 1-348, looked up)
chain: MNGTEGPNFYVPFSNKTGVVRSPFEAPQYYLAEPWQFSMLAAYMFLLIMLGFPINFLTLYVTVQHKKLRTPLNYILLNLAVADLFMVFGGFTTTLYTSLHGYFVFGPTGCNLEGFFATLGGEIALWSLVVLAIERYVVVCKPMSNFRFGENHAIMGVAFTWVMALACAAPPLVGWSRYIPEGMQCSCGIDYYTPHEETNNESFVIYMFVVHFIIPLIVIFFCYGQLVFTVKEAAAQQQESATTQKAEKEVTRMVIIMVIAFLICWLPYAGVAFYIFTHQGSDFGPIFMTIPAFFAKTSAVYNPVIYIMMNKQFRNCMVTTLCCGKNPLGDDEASTTVSKTETSQVAPA
modifications: all-trans retinal (Meta II state)

How the values were obtained:
[1] = target: biotinylated Avi-tagged GRK1 (residues 1-535, His6-Avi), Sgv-bound (Bos taurus (Bovine)., UniProt P28327, biotin on the Avi-tag); assay: ELISA
[2] = target: B2; assay: cross-linking
[3] = target: B1; assay: cross-linking

Kd [1] [nM]	binding result [3]	Binder	also measured
~2.5		Fab1 (Fab, V domains shown) VH: EVQLVESGGGLVQPGGSLRLSCAASGFNLYSSSIHWVRQAPGKGLEWVASIYSYYGSTSYADSVKGRFTISADTSKNTAYLQMNSLRAEDTAVYYCARYEGWWWANTYALDYWGQGTLVTVSS VL: DIQMTQSPSSLSASVGDRVTITCRASQSVSSAVAWYQQKPGKAPKLLIYSASSLYSGVPSRFSGSRSGTDFTLTISSLQPEDFATYYCQQYYEWLSLFTFGQGTKVEIK	
~2.5		Fab6 (Fab, V domains shown) VH: EVQLVESGGGLVQPGGSLRLSCAASGFNFSSYSIHWVRQAPGKGLEWVAYISSYYGSTYYADSVKGRFTISADTSKNTAYLQMNSLRAEDTAVYYCARHEYGWWNDRWGLDYWGQGTLVTVSS VL: DIQMTQSPSSLSASVGDRVTITCRASQSVSSAVAWYQQKPGKAPKLLIYSASSLYSGVPSRFSGSRSGTDFTLTISSLQPEDFATYYCQQSSWYGPFTFGQGTKVEIK	
		B1	stoichiometry N [2]: 1
	binds	hyper-phosphorylated rhodopsin (light activated) (receptor, bovine, UniProt P02699 1-348, looked up, 6–8 phosphates incorporated per rhodopsin (7 possible sites in the cytoplasmic tail)) MNGTEGPNFYVPFSNKTGVVRSPFEAPQYYLAEPWQFSMLAAYMFLLIMLGFPINFLTLYVTVQHKKLRTPLNYILLNLAVADLFMVFGGFTTTLYTSLHGYFVFGPTGCNLEGFFATLGGEIALWSLVVLAIERYVVVCKPMSNFRFGENHAIMGVAFTWVMALACAAPPLVGWSRYIPEGMQCSCGIDYYTPHEETNNESFVIYMFVVHFIIPLIVIFFCYGQLVFTVKEAAAQQQESATTQKAEKEVTRMVIIMVIAFLICWLPYAGVAFYIFTHQGSDFGPIFMTIPAFFAKTSAVYNPVIYIMMNKQFRNCMVTTLCCGKNPLGDDEASTTVSKTETSQVAPA	
	binds	B2	
